Source: patent US20040058356A1, “Methods for global profiling gene regulatory element activity” (priority 2001, published 2004)

What was measured:
PC12 cells [1] = assay: EMSA with 32P-labeled transcription factor binding site oligonucleotides, PC12 nuclear extracts; format: cell-based, rat; details: treated vs untreated PC12 cells
Procedure: Confirmation of the increase in the transcription factor AP-1 binding activity was performed by electrophoretic mobility shift assay (EMSA). Nuclear extracts obtained from PC cells either treated with NGF-beta or untreated were combined in separate binding reactions. Each reaction also contained a ^32P-labeled oligonucleotide comprising a binding site for a specific transcription factor. […] In contrast, when the oligonucleotide was specific for the OCT1 binding site (lanes 7 and 8), no increase in gel-shifted material was observed.

PC12 cells [2] = assay: Global regulatory element activity profiling with PC12 nuclear extracts; format: cell-based, rat; details: treated vs untreated PC12 cells, FIG. 3
Procedure: Rat pheochromocytoma (PC) cells (cell line PC12; ATCC Number CRL-1721) were grown in high glucose Dulbecco's Modified Eagle Medium (DMEM) in the presence of 10% horse serum, and then transferred to serum-free DMEM plus N2 supplement (Invitrogen) containing 200 ng/ml Nerve Growth Factor-beta (NGF-beta; Sigma). After a 5 hour exposure, the cells were removed from the dishes, washed with PBS, and collected by centrifugation for regulatory element activity profiling.
Global regulatory element activity profiling was carried out using nuclear extracts from cells that were either untreated or treated with NGF-beta. Known transcription factor binding sites present in the DNA sequences were counted as described for Jurkat cells. Bars indicate the percentage of DNA fragments containing selected cis sites that were isolated in binding reactions containing nuclear extracts from either untreated (white bars) or NGFbeta-treated (black bars) PC12 cells. It can be seen that NGF treatment led to an increase in binding activity for AP 1, ATF and TCF11 (among others), while other activities, for example, E2F and RFX1, were reduced after NGF treatment.

B1: Nerve Growth Factor-beta (protein, UniProt P01139 122-241, looked up)
Beta-nerve growth factor: SSTHPVFHMGEFSVCDSVSVWVGDKTTATDIKGKEVTVLAEVNINNSVFRQYFFETKCRASNPVESGCRGIDSKHWNSYCTTTHTFVKALTTDEKQAAWRFIRIDTACVCVLSRKATRRG
modifications: Beta-nerve growth factor
notes: Nerve Growth Factor-beta (Sigma) used to treat PC12 cells
- AP-1 binding site gel-shifted material (DNA-protein complexes) (PC12 cells [1]; FIG. 4 lanes 3 and 4): significant increase
- OCT1 binding site gel-shifted material (PC12 cells [1]; FIG. 4 lanes 7 and 8): no increase
- AP 1 binding activity (PC12 cells [2]): increase
- ATF binding activity (PC12 cells [2]): increase
- E2F binding activity (PC12 cells [2]): reduced
- RFX1 binding activity (PC12 cells [2]): reduced
- TCF11 binding activity (PC12 cells [2]): increase
